The values that follow come from the nanobody polyreactivity screen of Harvey et al. (2022).

The nature of the data set: yeast display, Sf9 membrane polyspecificity reagent, FACS + sequencing; frameworks hold sequencing errors. The gist of the method:
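Nanobodies from a synthetic yeast display library (Saccharomyces cerevisiae BJ5465), induced 36–48 hours with galactose, were stained 1 hour at 4 °C with 10% biotinylated, detergent-solubilized Sf9 membrane reagent, enriched on streptavidin microbeads, then FACS-sorted. Anti-HA (expression) and streptavidin (reagent binding) fluorescence set low and high (top ~1%) gates. Polyreactivity labels come from the gate of origin. Genes were colony-PCR amplified, MiSeq 2 × 250 sequenced and filtered by CDR length.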
For “QVQLVESGGGLVQAGGSLRLSCAASVSNIKYNAMGWYRQAPGKERELVAAISSSGGTTYYADSVKGRFTISRDNAKNTVYLQMNSLKPEDTAVYYCNKYFRAGNGYGEEDYWGQGTQVTVSS”, the “polyreactivity (PSR sort gate)” value is given as “high polyreactivity”. The entry for “QVQLVESGGGLVQAGGSLRLSCAASGSIFYGNVMGWYRQAPGKERELVAAISWRGGSTYYADSVKGRFTMSRDNAKNTVYLPMNSLKPEDTAVYYCNAERYYYATYGYPIDYWGQGTQVTVSS” is “low polyreactivity”. The entry for “QVQLVESGGGLVQAGGSLRLSCAASGRIFPHYSMGWYRQAPGKERELVAANSWSGSSTYYADSVKGRFTISRDNAMNTVYLQMNSLKPEDTAVYYCNAVRRGIGYDYGYWGQGTQVTVSS” is “high polyreactivity”; for “QVQLVESGGGLVQAGGSLRLSCAASGSTFGTYAMGWNRQATWKERELVAAITYSTGNTYYADSVKGRFTISRDNAKNNVYLQMNSLKPEDTAVYYCALEFGYYYFWMDYWGQGTQVTVSS” it is “high polyreactivity”; for “QDQLVESGGGLFQAGGSLRLSCSASGSIFQYYTMGWYRQAPGKERELVAAIKSGGRTNYADSVKGRFTISRDNAKNTVYLQMNSLKPEDTAVYYCAKRLSTRASFGEEDSWGQGTQVTVSS” it is “low polyreactivity”. As for “QVQLVDSGGGLVQAGGSLRLSCAASGSIFYYYAMVWYRQAPGKERELVAAISRNGGSTSYADSVKGRFTISRDNAKNTVYLQMNSLKPEDTAVYYCAVRKFHYFRYEYWGQGTQVTVSS”, the “polyreactivity (PSR sort gate)” value is recorded as “low polyreactivity”. The entry for “QVQLVESGGGLVQAGGSLRLISAASGRTFYSYAMGWYRQATGKERELVASISSGGGTNYADSVKGRFTSSRDNAMNTVYLQMNSLKPEDTAVYYGAAKYWFFYPYDYWGQGTQVTVSS” is “low polyreactivity”. The entry for “QVQLVESGGGLVQAGGSHRLSCAASGRTFYQNAMGWYRQAPGKERELVATISQRGGSTYYADSVKGRFTISRDTAKNTVYLQMNSLKPEDTAVYYCAKGRYAYSIWDDYWGQGTQVTVSS” is “low polyreactivity”; for “QVQLVESGGGLVQAGGSLRLSCAASGRIFTQNAMGWNRQAPGKERELVAAISYSGVSTYYADSVKGRFTISRDNAKNTVYLQMNSLKPEDTAVFYCARRYWYPDAFYRYDYWGLGTQVTVSS” it is “low polyreactivity”. Then “QVQLVESGGGLVQAGGSLRLSCAASGGIFAVYAMGWYRQAPGKERELVAAITWRGGSTRYADSVKGRFTISRDNAKNTVHLQMNSLIPEDTAVYYCAVRSTGYPSRYYYWGQGTQVTVSS”, with “high polyreactivity”; and “QVQLVESGGGLVQAGGSLRLSCAASGLIFANNTMGWYRQAPGKERELVAAISATGDGNTYYADSVKGRFTISRDNAKNTVYLQMNSLKPEDTAVYYCNRLPQYALPYRHNGYWGQGTQVTVSS”, with “low polyreactivity”; and “QVQLVESGGGLVQAGGSLRLSCAASGSIFQIYAMGWYRQAPGKERELVAAINSGGITKYADSVKGRFTISRDNAKNTVYLQMNSLKPEDTAVYYCAKRYGWPYGRFDYWGQGTQVTVSS”, with “low polyreactivity”.

As to “QVQLVESGGGLVQAGGSLRLSCAASGRIFYAYAMGWYRQAPGKERELVAAISSSGRTYYADSVKGRFTISRDNAKNTVYLQMNSLKPEDTAVYYCAAPGSPYGYWGQGTQVTVSS”, the “polyreactivity (PSR sort gate)” value was “high polyreactivity”. For the sequence “QVQLVESGGGLVQAGGSLRLSCAASGLTFYRYAMGWYRQAPGKERELVAAITSGGGRTYYADSVKGRFTISRDNAKNTVYLQMNSLKPEDTAVYYCAADRGDYRWRGLTPSSYGYWGQGTQVTVSS”, the “polyreactivity (PSR sort gate)” value is recorded as “high polyreactivity”. The entry for “QVQLVESGGGLVQAGGSLRLSCAASGSTFDSNAMGWYRQAPGKERELVAAIRFSGGSTNYADSVKGRFTISRDNAKNTVYLQMNSLKPEDTAVYYCAARYPNLRRRWYYYWGQGTQVTVSS” is “high polyreactivity”; for “QVQLVESGGGLVQAGGSLRLSCAASGRTFAYYAMGWYRQAPGKERELVAAISSSGGITYYADSVKGRFTISRDNAKNTVYLQMNSLKPEDTAVYYCATPRARTRLRYYWGQGTQVTVSS” it is “high polyreactivity”; for “QVQLVESGGGLVQAGGSLRLSCAASGYILQINAMGWYRQAPGKERELVAAISISGGNTYYADSVKGRFTISRDNAKNTVYLQMNSLKPEDTAVYYCAAYRYYSYLVRYGLLLAYYYWGQGTQVTVSS” it is “low polyreactivity”. As to “QVQLVESGGGLVQAGGSLRLSCAASGSTFAFYAMGWYRQAPGKERELVAAISRSGGRTYYADSVKGRFTISRDNAKNTVYLQMNSLKPEDTAVYYFAAPSSITTGPHREYDYWGQGTQVTVSS”, the “polyreactivity (PSR sort gate)” value is on record as “high polyreactivity”. Regarding “QVQLVESGGGLVQAGGSLRLSCASSGRTFEDYTMGWYRQAPGKVWEWVAAITGGGSTNYADSVKGRFTISRDNAKNTVYLQMYSQKPEDTAVYYCAAHYRYNWFRRYSYWGQGTQETVSS”, the “polyreactivity (PSR sort gate)” value is given as “high polyreactivity”. Then “QVQLVESGGGLVQAGGSLLLSCAASGRTFTRYAMGWYRQAPGKERELVASITNGGGTYYADSVKGRFTMSRDNAKNTVYLQMNSLKPEDTAVYYCAKAERVTSHLYYSWGQGTQVTVSS”, with “low polyreactivity”.

Regarding “QVQLVESGGGLVQAGGSLRLSCAASGSIFPGYAMGWSRQAPGKERELVATISTGGSTYYADSVKGRFTISRDNAKNTVYLQMNSLKPEDTAVYYCNADIRSYLRYSLRRYDDYDYWGQGTQVTVSS”, the “polyreactivity (PSR sort gate)” value is “low polyreactivity”. Then “QVQLVESGGGLDQAGGSLRLSCAASGFTFTGYAMGWYRQAPGKERELVAAITRGGGSTYYADSVKGRFTISRDNAKNTVYLQMNSLKPEDTAVYYSAAQRSRLIRISSPYYGHDYWGQGTQVTVSS”, with “low polyreactivity”; and “QVQLVESGGALVQAGGSLRLSCAASGYIFPGNAMGWYRQAPGKEREVVAGITSSGTSTYYADSVKGRFTISRDNAKNTVYLQMNSLKQEDTAVYYCAADALWGTGSGFDYWGQGTQVTVSS”, with “low polyreactivity”.

As for “QVQLQESGGGLVQAGGSLRLSCAASGNIFLGDTMGWYRQAPGKEREFVAAIARGGNPYYADSVKGRFTISRNNANNTVYLQKNSLKTEDTAVHYCAVQRSHASDYNYWCQGTQVTVSS”, the “polyreactivity (PSR sort gate)” value is given as “low polyreactivity”. Then “QVQLEESGGGLVQAGGSLPLSCAASGVIFGYYAMGWYIQAPGKERELVAAISKSGGSTYYADSVKARFTISRDNAKNTVYVQMNSLIPEDTAVYDCNADPRTASDQLEFDYWGQGTQVNVSS”, with “low polyreactivity”; and “QVQLVESGGGLVQAGGSLRLSCAASGSIFYTYAMGWYRQAPGKERELVAAISRSGGSTYYADSVKGRFTISRDNAKNTVYLQMNSLKPEDTAVYYCAAVSYRGRGYWGQGTQVTVSS”, with “high polyreactivity”; and “QVQLVESGGGLVQAGGSLRLSCAASGITYPGYAMGWYRQAPGKERELVAVIRKSGTSTYYADSVKGRFTISRDNAKNTVYLQMNSLKPEDTAVYYCAAGGPSTLDDYWGQGTQVTVSS”, with “low polyreactivity”. Regarding “QVQLVESGGGLVQAGGSLRLSCAASGSTRRYVMAWYRQAPGKEMELVAAISYSGGSTYYADSVKGRFTISRDNAKNTVYLQMNSLKPEETAVYYCAADGYSGQYGGHMGYWGQGTQVTVSS”, the “polyreactivity (PSR sort gate)” value is “high polyreactivity”. Then “QVQLVESGGGLVQAGGSLRLSCAASGYTFRGYAMGWYRQAPGKEREFVAAINWSDGSTYYADSVKGRFTISRDNAKNTVYLQMNSLKPEDTAVYYCNADQYYRVPDNYWGQGTLVTVSS”, with “low polyreactivity”. The entry for “QVQLVESGGGLVQAGGSLRLSCAASGGTFNGYAMGWYRQAPGKERELVAAITSSGGSTYYADSVKGRFTISRDNAKNTVYLQMNSLKPEDTAVYYCAAALYPTYDVVRGYAYEYWGQGTQVTVSS” is “low polyreactivity”; for “QVQLVESGGGLVQAGGSLRLSCAASGSIFDRNAMGWYRQAPGKERELVSAISRGGRTYYADSVKGRFTISRDNAKNTVYLQMNSLKPEVTAVYYCAAGYPSAWAYTTDDYWGQGTQVTVSS” it is “low polyreactivity”; for “QVQIEESGGGLVQAGGSLRLSCAASGLIFYYYAMGWYRQAPRKERELVAVFTESGYSTYYADYVKGLFTISRDYAKNNDYLQMNRLKPEDTAVYYCAAHGRAYVGGVGDDYWGQGTQVTVSS” it is “low polyreactivity”.

Turning to “QVQLVESGGGLVQAGGSLRLSCAASGSTFEQYAMGWYRQAPGKERELVAAINRGGSTYYADSVKGRFTISRDNAKNTVYLQMKSLKPEDTAVYYCAVYAFVRYRSRYGYWGQGTQVTVSS”, the “polyreactivity (PSR sort gate)” value was “high polyreactivity”. The entry for “QVQLLESGGGLVQAGGSLRLSCAASGFNFYYYAMGWYRQAPGKERELVAAISKSGGSTHYADSVKGRFTISRDNAKHTVYLQMNSLKPEDTAVYYCAARYILSKYGSGVRYNYWGQGTQVTVSS” is “high polyreactivity”. Then “QLQLVESGGGLVQAGVSLRLSCASSGRIFALYAMGLYSQAPGKERELVAAITWRGGRTRYADSVKGRFTFSRDNAKYTVYLQMNSLKPEDTAVYYCAKEYVKYQWDYGYFGQGTQVTVSS”, with “high polyreactivity”. Turning to “QFQLGESVGGLVQAGGSLRLSCAGYGSIFLGKAMGWYREATGKEMEFVDAIRISGGSTYYADSVKGRFTISRDNAQYTVYIQMNILKPEDTAVYYCAKFGPRASLYRTGRYYWGQGTQVTVSS”, the “polyreactivity (PSR sort gate)” value is on record as “high polyreactivity”. Then “QVQLVESGGGLVQAGGSLRLSCAASGGIFSYAMGWYRQAPGKERELVAAISSGGSTYYADSVKGRFTISRDNAKNTVYLQMNSLKPEDTAVYYCAADGNGVDYDYWGQGTQVTVSS”, with “low polyreactivity”; and “QVQLVESGGGLVQAGGSLRLSCAASGSTFGWYAMGWYRQAPGKERELVAAISNSGGSTYYADSVKGRFTISRDNAKNTVYLQMNSLKPEDTAVYYCATYHTTSYYQLVFDYWGQGTQVTVSS”, with “low polyreactivity”. Then “QVQLVESGGGLVQAGGSLRVSCAASGIIFRIYAMGWYRQAPGKEREFVAAISGSGDSTYYADSVKGRLTISRDNAKTTVYLQMNSLKPEDTAVYYCAADWTLVYYHEDYWGQGTQVTVSS”, with “low polyreactivity”; and “QVQLVESGGGLVQAGGSLRLSCAASGSTFYSYAMGWYRQAPGKERELVAAIDWSGDNTNYADSVKGRFTISRDNAKNTVYLQMNSLKPEDTAVYYCAAVYSYYRLYAYPAYYYWGQGTQVTVSS”, with “low polyreactivity”.
